Data taken from the supplement of paper PMC12042874.
± gives the uncertainty stated by the source.

Experiment: amyloid nucleation score (Sup35N fusion, yeast selection) (log enrichment); library NNK3; higher = more nucleation; inactive = no reads after selection
Summary of the method: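 In psi-negative yeast, Sup35N fusions carrying peptides of 20 random codons were induced with 100 μM copper sulfate for 24 hours. The cells then grew 7 days at 30°C on medium lacking adenine and uracil, and plasmid inserts from input and output were Illumina-sequenced, excluding sequences with under 100 input reads. Nucleation score is the DiMSum log enrichment of output over input reads, centred on the mode score of non-aggregating sequences.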
With SETDFYHGFIWGIPIGALSG the amyloid nucleation score was “inactive”. For KLSDDRKTRCNYYFMGLVVV, the amyloid nucleation score was “inactive”. In the case of LPLSFSL, the amyloid nucleation score is reported as “inactive”. For AKWSGFYYVLMYFFMLHLRY, the amyloid nucleation score was “inactive”. In the case of SIVSPIMRLFCFGLRAYKAV, the amyloid nucleation score is reported as “inactive”. FCGGVAFMMVNVERVRTRRE showed an amyloid nucleation score of 1.39 ± 0.15. For RISYKVRHTSNLVKTWCYTW, the amyloid nucleation score was “inactive”. For GLNYS, the amyloid nucleation score was “inactive”. In the case of YCLKLLGGFC, the amyloid nucleation score is reported as 0.657 ± 0.27. For GDLVSIWAMRFELRKSKEMR, the amyloid nucleation score was “inactive”. In the case of SGMVCVSLVG, the amyloid nucleation score is reported as “inactive”. For VGMISCKTILEFGGMSSFVM, the amyloid nucleation score was “inactive”. For ILDAEVFGLISGFMSMHCNA, the amyloid nucleation score was “inactive”. In the case of QRFVSIFPGI, the amyloid nucleation score is reported as “inactive”. YCCTLVTRCSVMNTL gave an amyloid nucleation score of 2.46 ± 0.065. In the case of WLELVSCS, the amyloid nucleation score is reported as “inactive”. For CSLTCWSVVRVFQYEILRE, the amyloid nucleation score was “inactive”. In the case of CQVWFTYYYLLGSTNDSMAR, the amyloid nucleation score is reported as “inactive”. In the case of YLLNVVYGKEVHMASDFLYG, the amyloid nucleation score is reported as “inactive”. In the case of YYFLLIGSW, the amyloid nucleation score is reported as “inactive”. QCCIMAITLDYFASPRYIVR showed an amyloid nucleation score of 0.022 ± 0.52. Substance YVPFNFMKHVIATVLSGV has an amyloid nucleation score of 0.014 ± 0.77. QFFIFFACLVLVVITLT showed an amyloid nucleation score of 2.53 ± 0.07. In the case of KRVCCCKNSSSCE, the amyloid nucleation score is reported as “inactive”. In the case of IHHQC, the amyloid nucleation score is reported as “inactive”. With LDVIFSKTFMEIVTLVVSLD the amyloid nucleation score was “inactive”. For SMLQAMEYYNIGIVYNHKIW, the amyloid nucleation score was “inactive”. In the case of TKVNL, the amyloid nucleation score is reported as “inactive”. In the case of EVSLFVTHIL, the amyloid nucleation score is reported as “inactive”. In the case of HRGLWTKATSLYYPFEMWMV, the amyloid nucleation score is reported as “inactive”. For DWTWMMS, the amyloid nucleation score was “inactive”. For ISMHPERQVMMRLPCRMCCL, the amyloid nucleation score was “inactive”. For DPVNLRC, the amyloid nucleation score was “inactive”. For NYVVIPRFMYLVQIYLKVFW, the amyloid nucleation score was -0.064 ± 0.8. With AVITSRVRWSLRNRRANISM the amyloid nucleation score was “inactive”. In the case of PTDDGLSNRMKQMSGHRVLH, the amyloid nucleation score is reported as “inactive”. With YSLGITGPHEAHQIVNLPWW the amyloid nucleation score was “inactive”. GLPNGGDPCLREVGSHLVTH showed an amyloid nucleation score of -0.347 ± 1.4. With PFAEQRRL the amyloid nucleation score was “inactive”. In the case of YFSRLTYCSRNSSCWILYCF, the amyloid nucleation score is reported as “inactive”. In the case of HRGYAAFFS, the amyloid nucleation score is reported as “inactive”. For SILKDS, the amyloid nucleation score was “inactive”. Work on VQRGSTALVFDVSTSIFMNI yielded an amyloid nucleation score of 1.57 ± 0.12. For SYYISMVYTVMSMNASFSRS, the amyloid nucleation score was “inactive”. With RRARKWLVIDVRVPSLWSMR the amyloid nucleation score was “inactive”. In the case of NNRLMYTSHISHACSYQMLK, the amyloid nucleation score is reported as “inactive”. For SLYYSTCIK, the amyloid nucleation score was “inactive”. For YFSWLSLHVFVSGFVRIVCR, the amyloid nucleation score was “inactive”. In the case of VFVPTKYHYMYVLGQWDIFV, the amyloid nucleation score is reported as “inactive”. With FFSISFS the amyloid nucleation score was “inactive”. In the case of LLKIFNNEVKITITFCLLYV, the amyloid nucleation score is reported as “inactive”. With KDCQKNGWLSSTNLELLQCP the amyloid nucleation score was “inactive”. For ILVDWFDCDQCKQTFCPGLV, the amyloid nucleation score was “inactive”. With QYTFVGDLMVDLITKTVMLM the amyloid nucleation score was “inactive”. For TYRVLE, the amyloid nucleation score was “inactive”. Work on INWFGVRYRYDSSNYFMYQL yielded an amyloid nucleation score of 0.986 ± 0.21. For CRIYCLLPISMIGSCSFIVH, the amyloid nucleation score was “inactive”. With QRVWRMMQNLSRW the amyloid nucleation score was “inactive”. In the case of ASRGRRLCSLYTHEGGSS, the amyloid nucleation score is reported as “inactive”. For DNSCVMMKTGGRYFELFRVV, the amyloid nucleation score was “inactive”. With GISYNSV the amyloid nucleation score was “inactive”. NCVCEWTAFLYIPSIWGFEH gave an amyloid nucleation score of 1.78 ± 0.098. For SFFFHSKSSGKTLNWSSDKA, the amyloid nucleation score was 0.956 ± 0.091. Substance GSLMTRRDLRKSPILIYRDG has an amyloid nucleation score of -0.819 ± 0.75. In the case of IGAIYACRLFVRGLASFLTL, the amyloid nucleation score is reported as “inactive”. For DKGVVPL, the amyloid nucleation score was “inactive”. For VCVLMIFNIVRRGMYSSARV, the amyloid nucleation score was “inactive”. With MRLRLYINVSG the amyloid nucleation score was “inactive”. WDVYLPLVMSLK showed an amyloid nucleation score of 1.29 ± 0.12. SSVWIFRWTICNWESKF showed an amyloid nucleation score of 2.45 ± 0.052. For SYMLWYSS, the amyloid nucleation score was “inactive”. In the case of TSVWVYTVPSFVGNDIDTS, the amyloid nucleation score is reported as “inactive”. KLMEICYRVRIRRMECQVNW showed an amyloid nucleation score of 0.753 ± 0.12. In the case of IVADAAWNAIGVSGMDSTGT, the amyloid nucleation score is reported as “inactive”. With YLHYRHYSSVCFYFSSNISN the amyloid nucleation score was “inactive”. In the case of FMGGIFAVFTRILVHSIWYS, the amyloid nucleation score is reported as “inactive”. With RERVATFQQPTRHGGGSLAS the amyloid nucleation score was “inactive”. LRFRTDFSSASNK showed an amyloid nucleation score of 1.18 ± 0.081. In the case of DSNGYKEGVDQNSGAKNTNK, the amyloid nucleation score is reported as “inactive”. With LLIFMFCLAFVFFFMAKDGN the amyloid nucleation score was “inactive”. For ALLTAYDRKNTNGYAGVRWN, the amyloid nucleation score was “inactive”. With WLLKIMQYLDLAGNG the amyloid nucleation score was “inactive”. For YMNSVACSEMFSFSGLWEWW, the amyloid nucleation score was “inactive”. With WLWTLYDG the amyloid nucleation score was “inactive”. With DYVAGN the amyloid nucleation score was “inactive”. For RYEFS, the amyloid nucleation score was “inactive”. With LTWLYDDDVSKFRTLLKFRS the amyloid nucleation score was “inactive”. FLCMLVYI gave an amyloid nucleation score of 1.23 ± 0.11. In the case of SGIRDHLMRTKFDFVFKM, the amyloid nucleation score is reported as “inactive”. For PYGLLQFNG, the amyloid nucleation score was “inactive”. In the case of SFSVSKAWGWMYSIQRCCLC, the amyloid nucleation score is reported as “inactive”. In the case of FMIYYLGLFRR, the amyloid nucleation score is reported as “inactive”. With HLRETCCRWDVLCVDSLLV the amyloid nucleation score was “inactive”. LNFGEFILMAGDLLTLMCVF showed an amyloid nucleation score of 1.42 ± 0.12. With YCIRVVVWYNRHYGYSLS the amyloid nucleation score was “inactive”. With GVKYVDNIGLRGWFFCRHAV the amyloid nucleation score was “inactive”. In the case of TLQHLGYVSNIWGVVTAAGS, the amyloid nucleation score is reported as “inactive”. In the case of KRKRVK, the amyloid nucleation score is reported as “inactive”. For STHKFNRNFIMSFAWLFICW, the amyloid nucleation score was “inactive”. Substance HSATASFHAADWSLKFMDGP has an amyloid nucleation score of 0.326 ± 0.23. Work on RLNLNVIL yielded an amyloid nucleation score of 2.58 ± 0.087. With RIVYCSFTKVG the amyloid nucleation score was “inactive”. Work on LTRVTMGYIAEIQWNFMSKN yielded an amyloid nucleation score of 1.56 ± 0.066. For VSGQVVFGLWGYLWLYEEVF, the amyloid nucleation score was “inactive”. For FKRLLARV, the amyloid nucleation score was -0.362 ± 0.98. For MHFLVQSCFTEPRWAACRNV, the amyloid nucleation score was “inactive”. With DLRCHGYC the amyloid nucleation score was “inactive”. In the case of ESSRRYEVCCLMW, the amyloid nucleation score is reported as “inactive”. In the case of LDKVSNSCTPIWPFVIET, the amyloid nucleation score is reported as “inactive”. In the case of LVFLN, the amyloid nucleation score is reported as “inactive”. In the case of YLSGS, the amyloid nucleation score is reported as “inactive”. In the case of DSLRWDYRL, the amyloid nucleation score is reported as “inactive”. With NGFKEGLIAVLREQYLSYQ the amyloid nucleation score was “inactive”. In the case of SLYKYRIWCMVFVVYFSQSQ, the amyloid nucleation score is reported as “inactive”. In the case of LGLMLDILRKQDC, the amyloid nucleation score is reported as “inactive”. Work on ASNEERLLFKCLLKV yielded an amyloid nucleation score of -0.411 ± 0.73. RWDFTSDSISRILTPLNVAK gave an amyloid nucleation score of 0.836 ± 0.13. With YVLSATG the amyloid nucleation score was “inactive”. With VVCLFRVRYRW the amyloid nucleation score was 1.48 ± 0.12. For ICGRTYVRVT, the amyloid nucleation score was -0.775 ± 1.1. With ICLDKITDAIYMDYNRAFSC the amyloid nucleation score was “inactive”. MFVSLMKQFM showed an amyloid nucleation score of 0.931 ± 0.1. In the case of LWLGWNRKWQFSWPAAGRFL, the amyloid nucleation score is reported as “inactive”. VINCIDMRLVYMLGETFFNY gave an amyloid nucleation score of 2.03 ± 0.083. For VLIRWRYEAYLSHCGSPCAS, the amyloid nucleation score was “inactive”. For SGNNMRLHTTGLVASNGLGS, the amyloid nucleation score was “inactive”. With LIPSKRTSDRLFLGPATLDF the amyloid nucleation score was “inactive”. With MIFSTYNNLLWLKSLQSTGG the amyloid nucleation score was “inactive”. In the case of CMIELRSR, the amyloid nucleation score is reported as “inactive”. With YPSCRTSLSARHMVFQGITL the amyloid nucleation score was “inactive”. With ILTWRRFVFFLDWVDFTSQG the amyloid nucleation score was “inactive”. For KPCHLYMTAEDTYVWMSVGL, the amyloid nucleation score was “inactive”. For SSSSNANGFNRHYLSVRFGE, the amyloid nucleation score was “inactive”. FVCLLCPMYYVHSTMWMSAR showed an amyloid nucleation score of 2.01 ± 0.057. In the case of FVCLSNIHMGTKTVILAMCL, the amyloid nucleation score is reported as “inactive”. For SVLFMRRLYSRMA, the amyloid nucleation score was “inactive”. GFCLQSNLCIIGRSFWTFLI gave an amyloid nucleation score of 0.629 ± 0.55. For TSVDGLCSFMDLRL, the amyloid nucleation score was “inactive”. For TNRMDKYCCV, the amyloid nucleation score was “inactive”. In the case of IHLVFREDITLVWVWNWIHV, the amyloid nucleation score is reported as “inactive”. With PVKMGVVLCNKWIYSKGTKN the amyloid nucleation score was “inactive”. For IWTTPHVCPNLMMSARGCRL, the amyloid nucleation score was “inactive”. For ILTNTIRGKVDSLRLFKTSW, the amyloid nucleation score was “inactive”. In the case of VFVVQNGMPTRFECVLGVQR, the amyloid nucleation score is reported as “inactive”. For RFFLYFNCAWVILMWCKRIV, the amyloid nucleation score was “inactive”. In the case of DQYLTVSHKTTTFRMCPQSG, the amyloid nucleation score is reported as “inactive”. With SHECNLCFNVL the amyloid nucleation score was “inactive”. In the case of VKVCEVSMQNRIFTGHAHFS, the amyloid nucleation score is reported as “inactive”. For EFHCSYLVIWYG, the amyloid nucleation score was “inactive”. In the case of PKIVYLLAFIVKIELVILTD, the amyloid nucleation score is reported as “inactive”. With YFRYIWEHMLVYGRVAKDDP the amyloid nucleation score was “inactive”. For FYIICWWVLDQDFCAWL, the amyloid nucleation score was “inactive”. With LGRCDVIVKEFVTIIA the amyloid nucleation score was “inactive”. With IYHSYNESVCTYSNHPSRM the amyloid nucleation score was “inactive”. With DAGELNILI the amyloid nucleation score was “inactive”. In the case of IYTARIVTFCTFFRRY, the amyloid nucleation score is reported as “inactive”. In the case of AYMLGITQNNGNHLNSSRRR, the amyloid nucleation score is reported as “inactive”. For INYCALARFLMNECLCPICT, the amyloid nucleation score was “inactive”. Work on LLGSFEGLIALYSGGWMAYR yielded an amyloid nucleation score of -0.108 ± 0.77. For ANKWESGSNALLDISVLMFW, the amyloid nucleation score was “inactive”. For LWGYGL, the amyloid nucleation score was “inactive”.
